Laboratory results as given in patent US10668186B2, “Quenched coating” (Original G B.V., priority 2014, dated 2020).
Like-named read-outs stand apart in the source and are kept apart here. Primed or numbered codes have the meaning given here. Where no end group is shown, it is not given here. code X = (S)-5-azido-2-(Fmoc-amino)pentanoic acid (δ-azido-L-norvaline); Orn(N3) = [N-]=[N+]=NCCC[C@H](N)C(=O)O; IRDye800CW′ = not defined here; IRDyeQC‑1 = quencher label; IRDye800RS = dye label; Pol = MeO-PEG-alkyne

How the values were obtained:
S. aureus = assay: Coated catheter S. aureus challenge, near infrared fluorescence imaging; assay type: cell-based; conditions: for Coating response to S. aureus challenge: coated Foley silicone catheter, 2×10^6 CFU ml^−1 S. aureus, 4 hours, excitation 710 nm, emission 800 nm; for detection of S. aureus (in words): coated catheter, S. aureus challenge
Procedure: The catheter used was a 14F silicone Foley Catheter which was provided in 6 mm lengths and having a diameter of 4.2 mm. An aqueous slurry of each polymer coating was prepared and each piece of catheter plunged into the slurry mixture. The coated catheters were stored at 20° C. in the dark for 15 minutes prior to repeating the dipping procedure. The process was repeated four times in total. After the final coating, the coated catheters were stored at 35° C. for 48 hours to facilitate drying of the coating. Each coated catheter and one none coated catheter as control, were incubated in the presence of 2×10^6 colony-forming units (CFU) ml^−1 of S. auereus for 4 hours. […] The results obtained from the IVIS Spectrum and IVIS Lumina II were analyzed with Living Image 4.2. (Caliper L S, Hopkinton Mass., USA). Optimal detection limits were set to the lowest signal at which positive signal was effortlessly discriminated from negative controls. Signal intensity was determined by drawing regions of interests (ROI's) and measuring average counts in these regions. The signal was corrected for background by subtracting the background signal from the signal of interest, referred to in the text as net counts. A strong near infrared signal was, attributed to the first fluorescent agent.

V8 protease = V8 protease (Staphylococcus aureus, UniProt P0C1U8); conditions: surface bound, Odyssey CLX, exciting at 800 nm
Procedure: The resulting solution (50 μL) was pipetted onto the glass slide, and the slide was kept in a humidified environment for 1H. The droplet was washed off by rinsing 3× with 1 mL DMSO:H2O 80/20; thereafter, the slide was placed in a washing solution of DMSO:H2O 80/20 and was gently agitated for 1 minute. The washing solution was rinsed off with water (5×1 mL) and the slide was dried by a flow of nitrogen.
Li-Cor Odyssey CLX equipment was used on site at Westburg (Leusden, N L; Timo Kreike, Moniek Kors). All Odyssey CLX measurements were taken by exciting at 800 nm.

[1] = target: V8 protease (Endoproteinase Glu-C from Staphylococcus aureus V8) (Staphylococcus aureus, UniProt P0C1U8); conditions: in solution, excitation 720 nm
Procedure: Bacterial protease was obtained from Sigma-Aldrich (Endoproteinase Glu-C from Staphylococcus aureus V8, P2922 SIGMA), also named ‘protease V8’ or ‘V8’ in this document.
The cleavage of peptide 1 in the presence of V8 protease and GranzymB protease was monitored in solution by luminescence spectroscopy. Photo-luminescence spectra were measured on a Perkin-Elmer Luminescence Spectrometer LS50 B. Spectra were recorded from 250 to 900 nm, using an excitation wavelength of 720 nm and applying a slit width of 15 nm.
The digestion in solution was performed in a glass vial. 100 μL of stock solution of peptide 1 (10 mg/mL) was diluted with 625 μL H2O and 250 μL 100 mM phosphate buffer solution (pH=7.8). A sample of 10 μL was taken at t=0. Then, 50 μL of V8 or Granzyme B protease stock solution (25 units, ±25 μg) was added, the mixture shaken and was kept at room temperature. […] At various time points (30 s, 2, 5, 10, 15, 20, 25, 30, 40, 50, 60, 90, 120, 150 and 180 min., and at 18H) a 10 μL incubate sample was taken and was diluted with 3 mL of water. The prepared diluted samples were measured by luminescence spectroscopy, so as to monitor the digestive cleavage of peptide 1. As blanks, cuvettes with water and the same amount of DMSO as the sample solution were used.

[2] = target: T1, Granzyme B, Human, Recombinant (Homo sapiens, UniProt P10144); assay: Digestion of peptide 1 in solution monitored by luminescence spectroscopy (Granzyme B); assay type: biochemical; conditions: presence of Granzyme B
T1 construct: purchased MerckMillepore 368043; host or cells: E. coli
Excerpt: Human recombinant protease was obtained from MerckMillepore (368043 Granzyme B, Human, Recombinant, E. coli).

V8 protease (Endoproteinase Glu-C from Staphylococcus aureus V8), sequence (P0C1U8 69-336): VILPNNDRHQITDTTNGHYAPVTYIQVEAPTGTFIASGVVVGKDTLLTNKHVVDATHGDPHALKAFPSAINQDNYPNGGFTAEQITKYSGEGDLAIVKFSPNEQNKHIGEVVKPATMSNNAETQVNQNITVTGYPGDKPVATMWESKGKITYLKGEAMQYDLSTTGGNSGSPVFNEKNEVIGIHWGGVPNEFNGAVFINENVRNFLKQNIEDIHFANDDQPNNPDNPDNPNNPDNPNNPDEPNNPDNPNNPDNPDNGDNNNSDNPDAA
T1 sequence (P10144 21-247): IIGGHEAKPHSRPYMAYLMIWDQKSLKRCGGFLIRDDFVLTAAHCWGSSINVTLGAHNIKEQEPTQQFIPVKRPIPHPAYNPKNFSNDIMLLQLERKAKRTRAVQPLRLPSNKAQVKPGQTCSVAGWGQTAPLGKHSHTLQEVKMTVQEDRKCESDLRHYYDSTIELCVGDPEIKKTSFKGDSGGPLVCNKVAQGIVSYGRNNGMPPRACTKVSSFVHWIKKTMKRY
V8 protease, sequence (P0C1U8 69-336): as the sequence (P0C1U8 69-336) above

Row | Substance | Coating response to S. aureus challenge (S. aureus) | detection of S. aureus (in words) (S. aureus) | intensity (V8 protease; before V8 protease) | intensity (V8 protease; in the presence of V8 protease) | background fluorescence ([1]; absence of V8 protease) | fluorescence intensity ([1]; after 30 s of adding V8 protease) | fluorescence intensity ([1]; within 6 minutes of adding V8 protease) | cleavage by Granzyme B [2] | background fluorescence ([2]; maintained throughout the experiment)
1 | (IRDye800RS)-KG-(Pol)-X-LLEFRIVAK(IRDye800RS) ({IRDye800RS-Lys-Gly-Pol-code X}-LLEFRIVAK(IRDye800RS); also: MeO-PEG) [Example 5.3] | + | only a weak signal is detected |  |  |  |  |  |  | 
2 | Ac-X-[K(IRDye800RS)]-GLLEFRIVAK(IRDye800RS)-amide ({Ac-Orn(N3)-K(IRDye800RS)}-GLLEFRIVAK(IRDye800RS)-NH2) [Peptide 1] |  |  | circa 6000 units | 25000 units | around 1 AU | 4 AU | 6 AU | not cut | 1 AU
3 | G-(Pol)-X-LLEFRIVAC-IRDye800CW (LLEFRIVAC-{IRDye800CW′}; not fully specified (residue 9, N-terminus); also: MeO-PEG) [Example 5.2, comparative, no non-fluorescent agent, reference compound] | − | only a small change in intensity in emitted light is detected |  |  |  |  |  |  | 
4 | Ac-(IRDye800CW)CG-(Pol)-X-LLEFRIVAK(IRDyeQC-1) ({Ac-Cys(IRDye800CW)-Gly-Pol-code X}-LLEFRIVAK(IRDyeQC‑1); also: MeO-PEG) [Example 5.4] | ++ | very good detection |  |  |  |  |  |  | 
